One substance from patent US6087166 can be followed below.

Assay in all cases: cell_activity
Data set [1] concerns TetR-FF (tTA3) (/ HSV fusion). The following applies: relative to tTA; -Tc 102828, +Tc 27.
Data set [2] deals with TetR-FFF (tTA2) (/ HSV fusion). As to conditions: relative to tTA; -Tc 259556, +Tc 33.
Data set [3] concerns TetR-FFFF (tTA1) (/ HSV fusion). As to conditions: relative to tTA; -Tc 607264, +Tc 33.
The subject of data set [4] is TetR-FG (tTA7) (/ HSV fusion). The following applies: relative to tTA; -Tc 88, +Tc 24.
The subject of data set [5] is TetR-FGY (tTA5) (/ HSV fusion). The following applies: relative to tTA; -Tc 12080, +Tc 16.
The test system of data set [6] is TetR-GF (tTA6) (/ HSV fusion). The following applies: relative to tTA; -Tc 1500, +Tc 28.
For data set [7], the system named is TetR-GFY (tTA4) (/ HSV fusion). As to conditions: relative to tTA; -Tc 37217, +Tc 25.
Data set [8] concerns TetR-VP16 (tTA) (/ HSV fusion). The following applies: luciferase -Tc 265410, +Tc 20.

For the substance “PhCMV*-1 promoter (tet operators, luciferase reporter in HeLa X1/6)”, the activity turned out to be 39% in data set [1]; 98% in data set [2]; 230% in data set [3]; 0.03% in data set [4]; 4.6% in data set [5]; 0.6% in data set [6]. The figures for the activity in data set [7] and in data set [8] were 14% and 100%, respectively.
